The values below come from paper PMC8863855.

This assay has as its target CD19-Fc (CD19-IgG1 Fc fusion protein) (UniProt P15391). Description: flow cytometry on cells. Conditions: for response (% Normalized Binding): n=3 independent donor replicates, untransduced background subtracted, normalized for % CAR-expressing T-cells, read off a plot; for response (% of cells in CD19-Fc binding gate): one representative example, untransduced 2%, not normalized, CD19-Fc concentration not stated for this panel, parent: 46. (In general: Flow cytometry measures light scatter and fluorescence of single cells or particles in a stream.)

The mark [1] stands for this setting: CD19-Fc 1.0µg/mL, parent: est. 73.
[2] abbreviates: CD19-Fc 0.5µg/mL, parent: est. 65.

Regarding “F-2 second generation (CD28+CD3ζ) CAR with the unmodified FMC63 scFv G01: VH CDR3 …>… (G>A at CDR3 position 5)”, the response (% Normalized Binding) under setting [1] was 4.4. The response (% of cells in CD19-Fc binding gate) (myc+ 49% (parent F-2 myc+ 43%)) is 2.

Take “F-2 second generation (CD28+CD3ζ) CAR with the unmodified FMC63 scFv G02: VH CDR3 …>… (G>A at CDR3 position 6)”: under setting [1], the response (% Normalized Binding) is 5.6. Besides, where the note is “myc+ 47% (parent F-2 myc+ 43%)”, the response (% of cells in CD19-Fc binding gate) is 2.

Take “F-2 second generation (CD28+CD3ζ) CAR with the unmodified FMC63 scFv Y03: VH CDR3 …>… (Y>A at CDR3 position 4)”: the response (% Normalized Binding) under setting [2] was 1.2 and the response (% Normalized Binding) under setting [1] was 8.6. Further, where the note is “myc+ 43% (parent F-2 myc+ 43%)”, the response (% of cells in CD19-Fc binding gate) came out at 4.

In the case of “F-2 second generation (CD28+CD3ζ) CAR with the unmodified FMC63 scFv Y04: VH CDR3 …>… (Y>A at CDR3 position 8)”, the response (% Normalized Binding) turned out to be 41 under setting [2] and 65 under setting [1]. In addition, under “myc+ 78% (parent F-2 myc+ 43%)”, the response (% of cells in CD19-Fc binding gate) stood at 28.

For “F-2 second generation (CD28+CD3ζ) CAR with the unmodified FMC63 scFv Y05: VH CDR3 …>… (Y>A at CDR3 position 12)”, the response (% Normalized Binding) is 70 under setting [2] and 100 under setting [1]. The response (% of cells in CD19-Fc binding gate) (myc+ 46% (parent F-2 myc+ 43%)) was 64.
